Source: US9315563B2, “Peptides that inhibit angiotensin converting enzyme and peptides with antioxidant activity purified from ovotransferrin and methods of producing and using the same” (The Governors of the University of Alberta, priority 2009, dated 2016)

Test: ORAC-FL assay (oxygen radical absorbance capacity)
Settings: ovotransferrin hydrolysates
Experimental: Briefly, 80 mM AAPH and 200 nM fluorescein in 75 mM phosphate buffer at pH 7.4 were prepared for each experiment. For each run, 20 μL of antioxidant, and 80 μL of phosphate buffer (or 100 μL of Trolox standard solutions at final concentrations of 1 to 8 μM) were placed in wells of a 96-well microplate, followed by addition of 50 μL of the fluorescein solution. The mixture was preincubated for 15 min at 37° C. 50 μL of AAPH solution was added rapidly using a multichannel pipet. The microplate was immediately placed in a Fluoroskan Ascent microplate reader (Thermo Electron Corporation) with 485-P excitation and 538-P emission filters and the fluorescence recorded every minute for 100 min. All readings were recorded using Fluoroskan Ascent software. The area under the curve of fluorescence decay (AUC) was calculated using Graphpad prism software (trial version). Regression equations between AUC and antioxidant concentrations were calculated for all the samples. The ORAC value was calculated by dividing the slope of sample regression curve by the slope of Trolox regression curve. Final ORAC values were expressed as μmol of Trolox equivalent/mg of protein or peptide.

B1: Unhydrolyzed ovotransferrin: egg ovotransferrin, un-hydrolyzed parent protein (protein, UniProt P02789 20-705, looked up)
Ovotransferrin: APPKSVIRWCTISSPEEKKCNNLRDLTQQERISLTCVQKATYLDCIKAIANNEADAISLDGGQAFEAGLAPYKLKPIAAEVYEHTEGSTTSYYAVAVVKKGTEFTVNDLQGKTSCHTGLGRSAGWNIPIGTLLHRGAIEWEGIESGSVEQAVAKFFSASCVPGATIEQKLCRQCKGDPKTKCARNAPYSGYSGAFHCLKDGKGDVAFVKHTTVNENAPDQKDEYELLCLDGSRQPVDNYKTCNWARVAAHAVVARDDNKVEDIWSFLSKAQSDFGVDTKSDFHLFGPPGKKDPVLKDLLFKDSAIMLKRVPSLMDSQLYLGFEYYSAIQSMRKDQLTPSPRENRIQWCAVGKDEKSKCDRWSVVSNGDVECTVVDETKDCIIKIMKGEADAVALDGGLVYTAGVCGLVPVMAERYDDESQCSKTDERPASYFAVAVARKDSNVNWNNLKGKKSCHTAVGRTAGWVIPMGLIHNRTGTCNFDEYFSEGCAPGSPPNSRLCQLCQGSGGIPPEKCVASSHEKYFGYTGALRCLVEKGDVAFIQHSTVEENTGGKNKADWAKNLQMDDFELLCTDGRRANVMDYRECNLAEVPTHAVVVRPEKANKIRDLLERQEKRFGVNGSEKSKFMMFESQNKDLLFKDLTKCLFKVREGTTYKEFLGDKFYTVISSLKTCNPSDILQMCSFLEGK
- ORAC: 0.21 ± 0.04 µmol/mg
